# Source: patent US20040167319A1 (Genmab, published 2004)
# Molecular target: human CD20 (human) (UniProt P11836)
# Test: dissociation of 125I-labelled F(ab)2 fragments from Ramos-EHRB cells, initial binding set at 100%
# Chain of human CD20 (human) (P11836 whole entry, the tested form may be a part): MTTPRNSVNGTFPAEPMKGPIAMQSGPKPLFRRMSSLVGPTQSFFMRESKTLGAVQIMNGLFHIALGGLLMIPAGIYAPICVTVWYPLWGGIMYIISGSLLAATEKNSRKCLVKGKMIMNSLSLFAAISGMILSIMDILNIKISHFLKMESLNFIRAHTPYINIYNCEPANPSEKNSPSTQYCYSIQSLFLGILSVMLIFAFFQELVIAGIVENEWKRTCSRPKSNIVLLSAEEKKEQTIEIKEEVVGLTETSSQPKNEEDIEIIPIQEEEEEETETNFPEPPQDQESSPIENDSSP
substance,measurement,value
F(ab′)2 fragment of rituximab,percent still bound at 90 min,50%
